# Experimental data taken from the DeepSol protein solubility set.
# Test: soluble on expression in E. coli; label from the status in PepcDB or PDB records
row,Sequence,soluble on expression in E. coli
1,MNETKVLIEKITEGIQEKKGKNIVIADLTNIDDTICKYFVICQGNSPSQVIAIVDSIKEFTRKGAGTKPSAIDGQRNAEWVAMDFSDVLVHVFLPEARNFYNLEHLWADAKLTTIPDID,soluble
2,MASLLTETMPFRMTMEGTVNGHHFKCTGKGEGNPFEGTQDMKIEVIEGGPLPFAFDILSTSC,soluble
3,MLKTNSSRDGKIKLTVDQMLGKLARWIRLMGYDVYYPAGNVSDNEIIEVSKNEGRILITKDYELYSRYPLSIYELYSNIDDQLYDFVFHFRKRTEEEFKRCPVCNGKLVKVYASPHVLNHRDLYRCEFCGKLYWKGTHYKKIYRKLKSLEKKSGAGRLEHHHHHH,not soluble
4,MEPAAGSSMEPSADWLATAAARGRVEEVRALLEAGALPNAPNSYGRRPIQVMMMGSARVAELLLLHGAEPNCADPATLTRPVHDAAREGFLDTLVVLHRAGARLDVRDAWGRLPVDLAEELGHRDVARYLRAAAGGTRGSNHARIDAAEGPSDIPD,soluble
5,MGSDKIHHHHHHMSDLITLAQLSQGYRYNSDSLILADFILKQGIKGAVFDVGAGCGIIGILLKKNIANLSLSLIDIQKENIELIEKNLKSNKIQGDIFHDDFNQFQIIKKFDFIVCNPPFYRQGAYKSEDQHKAISKFQEFLPLHSFLAKTNSMLKPNGTLYFCYEALALDEICFILKDMKMKITKLCFVHTHQSKKARLVLIQVKKGSKSPCEILPPFFVYENEILSKQMQEIHLRFRLKSYDI,not soluble
6,MGGASSPRIPSRRSAPYFTSLAFFGSSYIKVKNNRNKMLNPTDAASVALSFSVPFQMSGENPLSKLVEHCNKFVPGADIKMKAEPAKPESLLLPTDMNAYSPYLATPNWWVDQTGWPQLYPTVTTASSVDVYQNYLASSQLGGLLSSSVSAVASQLPAGINAQSALNITSQQRTIAKSFQHTKPMASSSSIPSVLTASNSSANSLVSSGSESVSARGTSGSGGTGKYPSSRTANKCECPNCHEIEKFGPNAIAARKRGVHNCHIAGCGKVYNKSSHLKAHLRWHSGERQMKKRSGDSS,not soluble
7,SMRKFGVVVVGVGRAGSVRMRDLRNPHPSSAFLNLIGFVSRRELGSIDGVQQISLEDALSSQEVEVAYICSESSSHEDYIRQFLNAGKHVLVEYPMTLSLAAAQELWELAEQKGKVLHEEHVELLMEEFAFLKKEVVGKDLLKGSLLFTAGPLEEERFGFPAFSGISRLTWLVSLFGELSLVSATLEERKEDQYMKMTVCLETEKKSPLSWIEEKGPGLKRNRYLSFHFKSGSLENVPNVGVNKNIFLKDQNIFVQKLLGQFSEKELAAEKKRILHCLGLAEEIQKYCCSRK,soluble
8,MSLQIMLCAISNIASGNCSEDCKYCTQSAHVKTDIQKYRRKELSQIVLEAKMAKKNEALGFCLVTAGLGLDDEKLEYVCEAAKAVQKEVPNLLLIACNGMASVEQLKELKKAGIFSYNHNLESSKEFFPQICTTHTWESRFQTNLNAKEAGLMLCCGGIYGMGESEEDRLSFRKSLQELQPFSTPINFFIANENLKLQVPRLSADEALKIVRDTKEALPQSVVMVAGGREVVLRERQYEIFQAGAGAIVIGDYLTTKGEEPSQDIIKLKEMGFTFASECHEGHHHHHH,not soluble
9,GPGSMPVPPPPPPPPPPPPPPPPPANSGGPSASVGGAAAAVFAEICQGGDNITARLRHVTDDQKMYKQNIRHGEVDMSELEHKKAAAEERRRAQQRTESTTGEEAAQPPVLTLEGDKRWVVKHQAGSPAVQLQLVLDKAEMRHAVRIENCHHAYITITNKVNSVSIVNCTKVQVALQVIVSSLEVLGCADVDVQVAQAAPTIDIERSTSVNVYLLDKDEARNTEIVTACSSTVNVLFPSEKEEDIVERAIPEQFVTRIVPDGKGGHKLCTKPSESF,soluble
10,MWITQEITPYLRKEYTIEAKLLDVRSEHNILEIFKSKDFGEIAMLNRQLLFKNFLHIESELLAHMGGCTKKELKEVLIVDGFDLELAHQLFKYDTHIDFVQADEKILDSFISFFPHFHEVKNNKNFTHAKQLLDLDIKKYDLIFCLQEPDIHRIDGLKRMLKEDGVFISVAKHPLLEHVSMQNALKNMGGVFSVAMPFVAPLRILSNKGYIYASFKTHPLKDLMTPKIEALTSVRYYNEDIHRAAFALPKNLQEVFKDNIKS,soluble
11,MFRRLILRQAAAVAAESKIACHHTVHGFEQRRGLHSRNEKAMEYVAKGWSAIKEVERVIDYCELNDRRLIPLLRGAKENFELALEADNLNTHARYWLSKLHLKYHVPGACKAVGAALLVEAADMGNADAQYELGCRLRVENDHVQSDQQAFHYIENAVDQLHPGALYLLGIVYLTGDCVKQDVDSAIWCFHRASEKGHAGAAIAYGSLLLRGVQVPESLTKLNVVGVSPPKRARKNLENPEMNPLEMAKEQFQIAARAGCDLGLKWLQRVEQEEKLLMREQDNECAYV,not soluble
12,MLITSYNPSELGDTLITILRPDTATQTIETHANVTRISDADSGETLGYNFFDVSKTLGDLDANGQVHLTAEQVEQLNNLLKTNDFEPELVLDTDPKFVVGYVESAEAHPKSDHLQITKTNVGLEQPLQIVSGSPNMQANILVVVAKVGAMMPSGLIIWPGELRGVESDGMIVSGRELRLPNAPQRPGALILPADYQPVGAAFDFKRAQTLFTALEHHHHHH,not soluble
13,MAKNKVLGRGLADIFPEINEVYEQGLYERANRVVELGIDEVMPNPYQPRKVFSEDSLEELAQSIKEHGLLQPVLVVSENGRYHLIAGERRLRASKLAKMPTIKAIVVDIEQEKMREVALIENIQREDLNPLELARSYKELLESYQMTQEELSKIVKKSRAHVANIMRLLTLSSKVQNALLEEKITSGHAKVLVGLDGEKQELILNSIIGQKLSVRQTEDLARDFKINANFDNKKHGFKQTQTLIAGDELERLNQSLWDHYKLKAALKGNKIVLRCYENSLLEAFMKKMMS,not soluble
14,EDPFQPEIKVRCVCGNSLETDSMIQVIWDELTAFIPCEDPRCHVWQHVGCVILPDKPMDGNPPLPESFYCEICRLT,soluble
15,MGSDKIHHHHHHMTLPEPDFIARDPAVITAELIAQYEQMSGKTLYPAQVERLLIDLMAYRETLVRVGIQEAAKQNLVAYARAPMLDYLGQLVGVTRLPAQPARATLRFTLDAPLASPLPIPAGTRVESGDGVVAFATDEAATLPAGRTSLEIAATCQDAGSAGNGWQPGQIVNLMDDLGDMDVVVTNTAVTAGGVDEEDDERLRERIMLAPESFSNAGSRQAYRFHALRAHQSIVDVAVLSPTPGVVQLYPLLKTGLPDANMLALVQATCSAERVRPLTDYVEALAPTAIDYAIDVRLTVYPDVDGKAVKTQAQERLQAYAAERAGALGRDIVPSQIIAAVQVPGVYQATVASPGLQQVPEHGWARCTGVSVTLEGVSHG,not soluble
16,TFFTATDGNHGRGVAWTANKLGQKSVVLMPKGSSEFRLNKIKGEGADASITDLNYDDAVRLANDYAEADDHGVMVQDTAWDGYEEIPAWIMQGYGTMAQEAIEQLKEYGVDRPTHVFVQAGVGSLAGAVQGYVASIYDECPITVVVEADEADCYYKSAEAGDGKPRFVGGDMPTIMAGLACGEPNTIGFEVLKNHAAAFVSAPDWVSAKGMRTLGNPLNGDEKVISGESGAVTTGLLVAAMEREDLADLRKDLKLDENSRILLISTEGDT,not soluble
17,MGSDKIHHHHHHMSAPTITTLGEFLQAGQAEYKIFDIGRCLTELSQEEFAAIEQQQRPYPYPIARQAQLAILFQHKQHDQQPFIWFLQFPLDERGLLNIAARNQYLEYVVNALGHEITGEMTEEQQKQLQQNPYLLTPNEQQRAALHARVQRQQKLSPSIHFETAEAYLKQPESGIDWQQMGLQGLHDCAARLEQLPELSKAIATHFSHYPSAVRQPLAVALEQQSLTPPVRDALLQNLESSNAQLCTDSLRALASASAHPRVKKAVNKLVPHANADQLVVIAARLWPVLCEEQNLLRYLDAIAELDNSLFDALFQDIIALPDIRPLLLSIIAQQKQSAAVNEALNRLKQQTQGS,not soluble
18,MGSDKIHHHHHHADNNKWKPLFGKNLENANYNPEVWSETDGVLGAVKDESIWTKDEYENFELDLDFKTDVGTNSGVVVYCTDTKDWIPNSVEIQIADDHCEKWGNGKPYEKCGAIYGHLGAVQDKVVKKPGEWNHMRIKCAGQHIMVILNGKKVTEMDMSKWTSGTKNPDGSDIPSWLPKPFAELPTKGFIGLQGKHGDSLIWFRNIKIRSL,not soluble
19,VMRLVTLRSHDQYNTTIYAMDDRYRGVFGRRDVLFMNEQDMAAQGLEHGDRVDIHTALPGSALTLEDITVVAYGIAPGTVGAYYPEANVLVPLNYLDEESGTPSYKSVPVRLTLRSKEIRPLVGGR,not soluble
20,METTLVIIRGNSGSGKTTLAQALQRRVGHHTLLVSQDVVRRDMLMSHDYPGNISIGLIEQIVCYGLGRVPVVIVEGILARDRYGKMLARLSQSFPRVLTYYFEVSFATTLARHQKRHRDFGVEDMRRWWLPHDTLGVANEVLIGEQQDLTTEVQQIMTTIHDCDLEHHHHHH,not soluble
21,MEITRLLTLYYEATPDPQNPLEGVRFGTSGHRGSSLKATFTEAHVLAIAQAIAELRPSFGATGPLFLAKDTHALSEPAWATALSVFAAHGIEVRVEADGDYTPTPLVSLAILEHNAHHEAKADGVLLTPSHNPPEDGGFKYNPPTGGPANARITRAIEERANALLQEGLKGVKRLPLREALARAKPFDYAGLYVEKVAEAVDLEAIRASGLRIGVDPLGGASLRVWERLAESHGLPLEVVNPTLDPTFRFMPKDHDGKIRMDCSSPYAMAGLLALKDRFDLAIGNDPDADRHGIVTPRGLMNPNHYLAAALHHLYTTRSWPGAKVGKTAVTSALLDRVAQALGREVYETPVGFKHFVAGLLEGWLGFAGEESAGASFLRFDGRPFSTDKDGILMGLLAAELMAKRGQAPDALYEALAEKLGRPYYARKDLPVSPEAKARLARLSAKEVHPSTLAGEPVLQVLDRATGNGEPLGGIKVVAANAWFAVRPSGTEDVAKVYAESFLGEAHLERVLEEATALLHKALA,soluble
22,MGSDKIHHHHHHMSIKLDHRLLYLRVIEKIKSDIDDGVYKEGEKLPSEFELSKQLGVSRATLREALRILEDENIVIRKHGVGTFINARPPFTSGIEELYSVTEMIARAGMIPTSEVLSSEMVQPTERDRERFQLGPDELVYRIERIRLAGDVPVVYCVDKIPSHYIKNEEQFTSSTSLFDALEKELGRRVTHAVTHIEPRIDPKIAEQLHTDQPLLVLRQTHYDELDRSVLYSANYFRADKFDFHVIRKRV,not soluble
23,MPTENELKIYLKRWDKKYGLTYKVLDILQTVFYRSDATREAFVEMCGDLDVQKLTFDSYLYKTVVPANPITQLKITAKTIGSLIRGNALAPLEHHHHHH,not soluble
24,MSLKNVLITGANSYIGLSFKNWLAKEPEKYKVDSISLRGDLWKEKDFSQYDVLLHAAGIAHIKETKENKELYFKVNRDVAYEAAKKAKDEGIKQFIFLSSMSVYGKENGIIDLDTLPKPTSNYGESKLQAEKLIEMLDDDSFKVVTIRPPMIYGKGCKGNYPKLAKLARKLPVFPDVENERSMIHIENLCEFMKLIIDNNDAGLFLPQNDDFVKTSEMVRLIGETNGKRIKLTKFFNPVLNLFIGKIGVVNKVFGNLKYKKEISNYKDNYIINNFAESIRRTEEGHHHHHH,soluble
25,GYQCQHNLNYWRFGDYLGIGCGSHGKLSFADGRIIRTTKVKHPRGYLAAYQNMVKPYLHTEQLVADEDRPFEFFMNRFRLMEACPKQDYVDTTGLPLSTIQDTIDWALEMGYLSETETHWQITEKGKLFLNDLLEAFMAEEDEE,not soluble
26,MRAVIPYKKAGAKSRLSPVLSLQEREEFVELMLNQVISSLKGAGIEQVDILSPSVYGLEEMTEARVLLDEKDLNEALNRYLKEAEEPVLIVMADLPLLSPEHIKEISSTEKDVCIVPGKGGGTNALFIKNPSKYRVKYYGSSFLTHCSIATDSGQDFEIYDSFMAGTDIDEPEDLVELLIHGKGAAKDYIESKFRLEVKKG,not soluble
